Data from US20200317768A1 (published 2020).

T1: Human latent myostatin (human, UniProt O14793 25-266; O14793 267-375)
T1 construct: Biotinylated in the ELISAs; also called human myostatin latent form
T1 sequence 1: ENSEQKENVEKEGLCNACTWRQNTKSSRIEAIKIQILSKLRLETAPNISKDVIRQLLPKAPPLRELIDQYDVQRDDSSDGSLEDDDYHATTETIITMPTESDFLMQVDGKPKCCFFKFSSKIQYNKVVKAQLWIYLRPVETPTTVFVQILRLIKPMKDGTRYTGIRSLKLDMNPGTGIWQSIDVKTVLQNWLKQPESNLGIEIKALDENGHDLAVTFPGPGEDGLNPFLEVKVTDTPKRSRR
T1 sequence 2: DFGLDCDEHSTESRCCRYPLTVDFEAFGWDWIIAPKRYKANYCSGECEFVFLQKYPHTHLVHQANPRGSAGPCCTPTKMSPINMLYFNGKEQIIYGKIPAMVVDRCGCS

T2: Mouse latent myostatin (mouse, UniProt O08689 26-267; O08689 268-376)
T2 construct: Latent form = complex of two propeptides and the mature dimer
T2 sequence 1: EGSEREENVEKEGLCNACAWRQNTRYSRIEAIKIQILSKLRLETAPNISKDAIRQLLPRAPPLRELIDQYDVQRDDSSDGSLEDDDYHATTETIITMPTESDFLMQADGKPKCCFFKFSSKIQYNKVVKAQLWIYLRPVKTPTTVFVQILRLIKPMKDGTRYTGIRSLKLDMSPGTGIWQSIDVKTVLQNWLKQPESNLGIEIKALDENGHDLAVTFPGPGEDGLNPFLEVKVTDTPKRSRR
T2 sequence 2: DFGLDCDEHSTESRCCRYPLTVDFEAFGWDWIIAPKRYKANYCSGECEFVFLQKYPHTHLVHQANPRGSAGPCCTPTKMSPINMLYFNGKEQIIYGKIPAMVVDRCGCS

T3: Human latent myostatin (human, UniProt O14793 25-266; O14793 267-375)
T3 construct: also called human myostatin latent form
T3 sequence 1: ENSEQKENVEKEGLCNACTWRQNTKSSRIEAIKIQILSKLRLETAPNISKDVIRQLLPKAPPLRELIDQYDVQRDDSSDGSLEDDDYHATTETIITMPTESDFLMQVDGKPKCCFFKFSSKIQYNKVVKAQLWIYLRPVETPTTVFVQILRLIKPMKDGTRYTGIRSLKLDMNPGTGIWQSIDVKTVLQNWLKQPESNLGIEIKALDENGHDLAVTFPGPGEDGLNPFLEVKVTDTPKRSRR
T3 sequence 2: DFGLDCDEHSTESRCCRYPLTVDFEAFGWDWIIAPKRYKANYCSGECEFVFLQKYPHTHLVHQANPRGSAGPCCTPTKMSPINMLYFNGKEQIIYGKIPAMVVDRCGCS

T4: Cynomolgus monkey latent myostatin (cynomolgus monkey, UniProt Q95J86 25-266; Q95J86 267-375)
T4 construct: Latent form = complex of two propeptides and the mature dimer; also called Cyno latent myostatin
T4 sequence 1: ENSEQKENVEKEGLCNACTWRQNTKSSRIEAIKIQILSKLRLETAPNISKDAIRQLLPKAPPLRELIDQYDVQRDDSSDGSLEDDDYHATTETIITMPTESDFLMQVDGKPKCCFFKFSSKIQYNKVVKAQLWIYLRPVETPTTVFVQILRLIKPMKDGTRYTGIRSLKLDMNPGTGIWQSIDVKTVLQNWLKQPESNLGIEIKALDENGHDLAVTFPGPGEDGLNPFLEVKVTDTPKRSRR
T4 sequence 2: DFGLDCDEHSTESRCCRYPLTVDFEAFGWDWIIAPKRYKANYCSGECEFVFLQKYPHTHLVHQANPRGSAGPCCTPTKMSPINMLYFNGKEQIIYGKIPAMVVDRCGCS


What was measured:
Human latent myostatin [1] = molecular target: T1, Human latent myostatin; assay: SPR (BIACORE T200), 37 C, pH7.4, 1:1 fit; title prints avidity, by the text the affinity condition (capture 18.5 RU)
Protocol: (§1) The kinetic parameters of anti-latent myostatin antibodies against human, cynomolgus monkey (cyno), and mouse latent myostatin were assessed at 37° C. at pH7.4 using a BIACORE® T200 instrument (GE Healthcare). ProA/G (Pierce) was immobilized onto all flow cells of a CM4 chip using amine coupling kit (GE Healthcare). Anti-latent myostatin antibody and analytes were prepared in ACES pH7.4 (20 mM ACES, 150 mM NaCl, 1.2 mM CaCl₂), 0.05% TWEEN® 20, 0.005% NaN₃). […] Then human, cyno, or mouse latent myostatin was injected at 3.125 to 50 nM prepared by two-fold serial dilution, followed by dissociation. The sensor surface was regenerated with 25 mM NaOH. Kinetic parameters were determined by processing and fitting the data to a 1:1 binding model using BIACORE® T200 Evaluation software, version 2.0 (GE Healthcare).
(§2) All experimental settings were the same as in Example 7, except that measurements were also performed in ACES pH5.8 buffer in addition to ACES pH7.4 condition. Some antibodies were only measured against human latent myostatin. Antibody capture level was aimed at 185 RU and 18.5 RU, for avidity and affinity assay, respectively. Kinetic parameters were determined using 1:1 Binding fitting using BIACORE® T200 Evaluation software, version 2.0 (GE Healthcare).

Human latent myostatin [2] = molecular target: T1, Human latent myostatin; assay: SPR (BIACORE T200), 37 C, pH5.8, avidity condition (capture 185 RU), 1:1 fit; pH 5.8
Protocol: as §1, §2

Human latent myostatin [3] = molecular target: T1, Human latent myostatin; assay: SPR (BIACORE T200), 37 C, pH7.4, avidity condition (capture 185 RU), 1:1 fit; pH 7.4
Protocol: as §1, §2

Mouse latent myostatin [4] = molecular target: T2, Mouse latent myostatin; assay: SPR (BIACORE T200) 37C, pH 7.4, antibody captured by ProA/G
Protocol: (§3) ProA/G (Pierce) was immobilized onto all flow cells of a CM4 chip using an amine coupling kit (GE Healthcare). All antibodies and analytes were prepared in ACES pH7.4 or pH5.8 buffer containing 20 mM ACES, 150 mM NaCl, 1.2 mM CaCl₂, 0.05% TWEEN®) 20, 0.005% NaN₃. […] Human, cyno, and mouse latent myostatin was injected at 3.125 to 50 nM prepared by two-fold serial dilution, followed by dissociation. The sensor surface was regenerated each cycle with 10 mM Glycine HCl pH1.5. Binding affinity was determined by processing and fitting the data to a 1:1 binding model using BIACORE® T200 Evaluation software, version 2.0 (GE Healthcare).

Human latent myostatin [5] = molecular target: T3, Human latent myostatin; assay: as above
Protocol: as §3

[6] = molecular target: T4, Cynomolgus monkey latent myostatin; assay: as above
Protocol: as §3

Mouse latent myostatin [7] = molecular target: T2, Mouse latent myostatin; assay: SPR 37C; KD pH 5.8 / KD pH 7.4
Protocol: as §3

Human latent myostatin [8] = molecular target: T3, Human latent myostatin; assay: SPR 37C; KD pH 5.8 / KD pH 7.4
Protocol: as §3

[9] = molecular target: T4, Cynomolgus monkey latent myostatin; assay: SPR 37C; KD pH 5.8 / KD pH 7.4
Protocol: as §3

Mouse latent myostatin [10] = molecular target: T2, Mouse latent myostatin; assay: SPR (BIACORE T200) 37C, pH 5.8, antibody captured by ProA/G
Protocol: as §3

Human latent myostatin [11] = molecular target: T3, Human latent myostatin; assay: as above
Protocol: as §3

[12] = molecular target: T4, Cynomolgus monkey latent myostatin; assay: as above
Protocol: as §3

Row | Kd (Human latent myostatin [1]) | koff (Human latent myostatin [1]) | kon (Human latent myostatin [1]) | Kd (Human latent myostatin [2]) | koff (Human latent myostatin [2]) | kon (Human latent myostatin [2]) | Kd (Human latent myostatin [3]) | koff (Human latent myostatin [3]) | kon (Human latent myostatin [3]) | Kd (Mouse latent myostatin [4]) | Kd (Human latent myostatin [5]) | Kd [6] | ratio of KD at pH 5.8/pH 7.4 (Mouse latent myostatin [7]) | ratio of KD at pH 5.8/pH 7.4 (Human latent myostatin [8]) | ratio of KD at pH 5.8/pH 7.4 [9] | Kd (Mouse latent myostatin [10]) | Kd (Human latent myostatin [11]) | Kd [12] | Binder
1 | 1.08 nM | 0.00117 s⁻¹ | 1.08e+06 M⁻¹ s⁻¹ | 9.66 nM | 0.00524 s⁻¹ | 543000 M⁻¹ s⁻¹ | 0.196 nM | 0.000192 s⁻¹ | 981000 M⁻¹ s⁻¹ |  |  |  |  |  |  |  |  |  | MS_M103205H781-SG1/M103202L813-SK1 (antibody, human IgG1, kappa, V domains shown, also called MS1032LO03-SG1; MSLO-03) VH: QVTLKESGPVLVKPTETLTLTCTVSGIDLSHTDISWVRQAPGKGLEWVGIISYAGSTYYMSWAKGRLTISKDTSKNQVVLTMTNMDPVDTATYYCARGVPAYSHGGDLWGQGTLVTVSS VL: DIVMTQSPATLSLSPGERATLSCQTSQSVYHDNWLSWFQQKPGQPPKLLIYWASTLASGVPSRFSGSGSGTDFTLTISSLQPEDAATYYCAGGYGGGRYAFGQGTKVEIKR
2 |  |  |  |  |  |  |  |  |  | 0.266 nM | 0.26 nM | 0.299 nM | 24 | 62 | 26 | 6.4 nM | 16.1 nM | 7.71 nM | MS_M103245H1233-SG1/M103202L1045-SK1 (antibody, human IgG1, kappa, V domains shown, also called MS1032LO23-SG1) VH: QVTLKESGPVLVKPTETLTLTCKVSGIDLSHEDISWVRQAPGKGLEWVSIISYAGSTYYASWAKGRLTISKDTSKNQVVLTMTNMDPVDTATYYCARGVPAYSHGGDLWGQGTLVTVSS VL: DIVMTQSPATLSLSPGERATLSCTTSQSVYHENWLSWFQQKPGQPPKLLIYWASTLAYGVPSRFSGSGSGTDFTLTISSLQPEDAATYYCAGGYGGGRYAFGQGTKVEIKR
3 |  |  |  |  |  |  |  |  |  | 0.362 nM | 0.419 nM | 0.502 nM | 81 | 341 | 87 | 29.2 nM | 143 nM | 43.5 nM | MS_M103205H1047-SG1/M103202L889-SK1 (antibody, human IgG1, kappa, V domains shown, also called MS1032LO11-SG1) VH: QVTLKESGPVLVKPTETLTLTCTVSGIDLSHTDISWVRQAPGKGLEWVGIISYAGKKYYASWAKGRLTISKDTSKNQVVLTMTNMDPVDTATYYCARGVPAYSHGGDLWGQGTLVTVSS VL: DIVMTQSPATLSLSPGERATLSCTSSQSVYHANWLSWFQQKPGQPPKLLIYWASTLAYGVPSRFSGSGSGTDFTLTISSLQPEDAATYYCAGGYGGGRYAFGQGTKVEIKR
4 |  |  |  |  |  |  |  |  |  | 0.319 nM | 0.275 nM | 0.339 nM | 97 | 168 | 102 | 30.8 nM | 46.2 nM | 34.7 nM | MS_M103205H1004-SG1/M103202L889-SK1 (antibody, human IgG1, kappa, V domains shown, also called MS1032LO07-SG1) VH: QVTLKESGPVLVKPTETLTLTCTVSGIDLSHDDISWVRQAPGKGLEWVGIISYAGSMYYASWAKGRLTISKDTSKNQVVLTMTNMDPVDTATYYCARGVPAYSHGGDKWGQGTLVTVSS VL: DIVMTQSPATLSLSPGERATLSCTSSQSVYHANWLSWFQQKPGQPPKLLIYWASTLAYGVPSRFSGSGSGTDFTLTISSLQPEDAATYYCAGGYGGGRYAFGQGTKVEIKR
